Here are results for one substance from patent US20140243502.

In data set [1] the test system is scFv anti-LIBS-TAP fusion protein.
The target of data set [2] is recombinant tick anticoagulant peptide (rTAP) (UniProt P17726).
Data set [3] deals with non-targeted mut-scFv-TAP (UniProt P17726).

Consider factor Xa (fXa), for which the “cleavage of chromogenic substrate (spectrozyme FXa #222) by factor Xa, OD at 405 nm” value in data set [1] is “inhibition of factor Xa activity by rTAP, scFv anti-LIBS-TAP, and non-targeted mut-scFv-TAP, but not by scFv anti-LIBS”; in data set [2], “inhibition of factor Xa activity by rTAP, scFv anti-LIBS-TAP, and non-targeted mut-scFv-TAP, but not by scFv anti-LIBS”; in data set [3], “inhibition of factor Xa activity by rTAP, scFv anti-LIBS-TAP, and non-targeted mut-scFv-TAP, but not by scFv anti-LIBS”.
